Where two headings read alike, the source gives them in different places.
Key:
Human-TNFR2-His [1] = target: T1, Human-TNFR2-His (human, UniProt P20333 23-257); test: ELISA: Human-TNFR2-His coated (0.1 ug/mL), antibody titrated, goat anti-human IgG Fc detection (Example 2)
T1 construct: Bought protein; also called human TNFR2 protein; TNFR2 protein; not shown: His tag
T1 sequence (looked up): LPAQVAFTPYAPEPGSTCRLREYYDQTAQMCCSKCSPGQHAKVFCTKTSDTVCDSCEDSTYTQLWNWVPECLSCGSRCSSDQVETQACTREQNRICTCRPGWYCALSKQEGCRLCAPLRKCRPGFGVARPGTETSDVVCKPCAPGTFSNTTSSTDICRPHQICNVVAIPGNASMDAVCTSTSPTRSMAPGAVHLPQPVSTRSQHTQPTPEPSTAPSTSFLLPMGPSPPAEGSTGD

Human-TNFR2-His [2] = target: T1, Human-TNFR2-His; test: as above; remark: listed apart in the source
Experimental: (§1) Human-TNFR2-His (manufacturer: SINO, CAT: 10417-H08H, LOT: LC15NO0412) was diluted to 0.1 μg/mL with a coating solution (1×PBS, pH7.4), and coated in 96-well ELISA plate at 100 µL/well overnight at 4° C. The coating solution was poured off. Each well was washed with 1×PBST at 300 μL, washed 4 times with a plate washer, and patted dry on a flat paper. It was blocked with 3% skim milk powder at 300 μL/well, and incubated at 37° C. for 1 h. The blocking solution was poured off, washed 4 times with a plate washer, and patted dry on a flat paper. Negative control and positive control were set up. […] The positive control and antibody were diluted to 10 μg/mL with 3% skim milk powder as the starting concentration, and then diluted by 3-fold gradient (11 gradients in total), and a blank well was set up and only the diluent was added. It was incubated at 37° C. for 1 h at 100 μL/well. The liquid in the well was discarded, washed 4 times with a plate washer, and patted dry on a flat paper. Goat anti-human IgG Fc was diluted with 3% skim milk powder at 1:10000, and incubated at 37° C. for 1 h at 100 μL/well. It was washed 6 times with a plate washer, and patted dry on a flat paper. TMB color developing solution was added at 100 μL/well, and wrapped with aluminum foil. Color development was performed at 37° C. in the dark for 8 min. Termination solution 1M HCl was added to terminate the color development reaction at 100 μL/well. Readings were taken at 450 nm on an ELISA reader.

Human-TNFR2-His [3] = target: T1, Human-TNFR2-His; test: as above; remark: listed apart in the source
Experimental: as §1

Human-TNFR2-His [4] = target: T1, Human-TNFR2-His; test: as above; remark: listed apart in the source
Experimental: as §1, with “Termination solution 1M HCl was added to terminate the color development reaction at 100 μL/well.” left out

Human-TNFR2-His [5] = target: T1, Human-TNFR2-His; test: BLI, antibody on AHC sensor, 100 nM TNFR2-His in solution
Experimental: The AHC sensor was soaked in 0.02% PBST (0.02% Tween 20, pH 7.4, 1×PBS) as a buffer for 600 s to remove the sucrose covering the sensor surface. The AHC sensor was equilibrated with 0.02% PBST (0.02% Tween 20, pH 7.4, 1×PBS) as a buffer for 60 s, the antibody in the sample plate was solidified for 300 s, and the secondary equilibration buffer was used for 180 s. 100 nM human-TNFR2-His (manufacturer: SINO, CAT: 10417-H08H, LOT: LC15NO0412) protein was bound to the antibody for 300 s and then dissociated for 600 s. After dissociation, 10 mM glycine (pH 2.0) was used as a regeneration buffer for 30 s. The sensor was regenerated with 10 mM glycine (pH 2.0).

Human 4-1BB His [6] = target: T2, Human 4-1BB His (human, UniProt Q07011 24-186); test: BLI, antibody on AHC sensor, 100 nM 4-1BB His in solution
T2 construct: Bought protein; lots 198-2146F1-W6 and 2407c-214FF1-YC; also called human 4-1BB protein; 4-1BB protein; not shown: His tag
T2 sequence (Q07011 24-186 limits assumed): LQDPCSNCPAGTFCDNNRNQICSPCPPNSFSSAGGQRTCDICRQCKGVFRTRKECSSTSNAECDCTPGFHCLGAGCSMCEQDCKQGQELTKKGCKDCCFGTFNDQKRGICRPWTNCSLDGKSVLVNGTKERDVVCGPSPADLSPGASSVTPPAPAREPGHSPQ
Excerpt: The variable region of the antibody sequence of the positive control consists of SEQ ID NO: 15 and SEQ ID NO: 19, with the addition of the constant region of human IgG1 (SEQ ID NO: 46 and SEQ ID NO: 47). The AHC sensor was soaked in 0.02% PBST (0.02% Tween 20, pH 7.4, 1× PBS) as a buffer for 600 s to remove the sucrose covering the sensor surface. The AHC sensor was equilibrated with 0.02% PBST (0.02% Tween 20, pH 7.4, 1× PBS) as a buffer for 60 s, the antibody in the sample plate was solidified for 300 s, and the secondary equilibration buffer was used for 180 s. 100 nM human 4-1BB His (manufacturer: Acro, CAT: 41B-H5258, LOT: 198-2146F1-W6) protein was bound to the antibody for 300 s and then dissociated for 600 s. After dissociation, 10 mM glycine (pH 2.0) was used as a regeneration buffer for 30 s. The sensor was regenerated with 10 mM glycine (pH 2.0).

Human 4-1BB His [7] = target: T2, Human 4-1BB His; test: ELISA: Human 4-1BB His coated (0.2 ug/mL), antibody titrated, goat anti-human IgG Fc detection (Example 3)
Experimental: (§2) Human 4-1BB His (manufacturer: Acro, CAT: 41B-H5258, LOT: 198-2146F1-W6) was diluted to 0.2 μg/mL with a coating solution (1×PBS, pH7.4), and coated in 96-well ELISA plate at 100 μL/well overnight at 4° C. The coating solution was poured off. Each well was washed with 1×PBST at 300 μL, washed 4 times with a plate washer, and patted dry on a flat paper. It was blocked with 3% skim milk powder at 300 μL/well, and incubated at 37° C. for 1 h. The blocking solution was poured off, washed 4 times with a plate washer, and patted dry on a flat paper. Negative control and positive control were set up. […] The variable region of the antibody sequence of the positive control consists of SEQ ID NO: 15 and SEQ ID NO: 19, with the addition of the constant region of human IgG1 (SEQ ID NO: 46 and SEQ ID NO: 47). The positive control and antibody were diluted to 10 μg/mL with 3% skim milk powder as the starting concentration, and then diluted by 3-fold gradient (11 gradients in total), and a blank well was set up and only the diluent was added. It was incubated at 37° C. for 1 h at 100 μL/well. The liquid in the well was discarded, washed 4 times with a plate washer, and patted dry on a flat paper. Goat anti-human IgG Fc was diluted with 3% skim milk powder at 1:20000, and incubated at 37° C. for 1 h at 100 μL/well. It was washed 6 times with a plate washer, and patted dry on a flat paper. TMB color developing solution was added at 100 μL/well, and wrapped with aluminum foil. Color development was performed at 37° C. in the dark for 8 min. Termination solution 1M HCl was added to terminate the color development reaction at 100 μL/well. Readings were taken at 450 nm on an ELISA reader.

Human 4-1BB His [8] = target: T2, Human 4-1BB His; test: as above; remark: listed apart in the source
Experimental: as §2

Human 4-1BB His [9] = target: T2, Human 4-1BB His; test: as above; remark: listed apart in the source
Experimental: as §2

Human 4-1BB His [10] = target: T2, Human 4-1BB His; test: as above; remark: listed apart in the source
Experimental: as §2, with “It was washed 6 times with a plate washer, and patted dry on a flat paper. TMB color developing solution was added at 100 μL/well, and wrapped with aluminum foil. Color development was performed at 37° C. in the dark for 8 min. Termination solution 1M HCl was added to terminate the color development reaction at 100 μL/well.” left out

Human 4-1BB His [11] = target: T2, Human 4-1BB His; test: as above; remark: listed apart in the source
Experimental: as §2

Human 4-1BB His [12] = target: T2, Human 4-1BB His; test: as above; remark: listed apart in the source
Experimental: as §2

B1: Positive control 2 (anti-TNFR2 VHH) (VHH)
VHH: EVQLVESGGGLVQPGGSLRLSCAASGSRLDYYAVAWFRQAPGKEREEVSCITYSGGSTNYAESVKGRFTISRDNSKNTLYLQMNSLRAEDTAVYYCTTEPYGSSCPLSGYDTWGQGTLVTVSS
**Q.** Which results are given for B1?
**A.** EC50 (read off the curve) (Human-TNFR2-His [1]): ~40 pM; EC50 (read off the curve) (Human-TNFR2-His [2]): ~40 pM; EC50 (read off the curve) (Human-TNFR2-His [3]): 40 to 50 pM; EC50 (read off the curve) (Human-TNFR2-His [4]): 100 to 200 pM; Kd (Human-TNFR2-His [5]): 1610 pM; koff (Human-TNFR2-His [5]): 0.000427 s⁻¹; kon (Human-TNFR2-His [5]): 266000 M⁻¹ s⁻¹

B2: Positive control (anti-4-1BB antibody, human IgG1) (antibody, V domains shown)
VH: QVQLQESGPGLVKPSETLSLTCTVSGSSLTSYGVHWVRQPPGKGLEGLGVIWPGGSTNYNSALMSRVTISKDNSKSQVSLKMSSLTAADTAVYYCARVTGTWYFDVWGQGTTVTVSS
VL: DIQMTQSPSSLSASLGDRVTISCSASQGISNYLNWYQQKPDGTVKLLIYYTSTLHSGVPSRFSGSGSGTDYTLTISSLQPEDIATYYCQQYSKLPWTFGGGTKLEIK
notes: also called control antibody
**Q.** B2 was tested. Which Kd (Human 4-1BB His [6]) did it give?
**A.** 14200 pM

**Q.** And the koff (Human 4-1BB His [6])?
**A.** 0.00553 s⁻¹

**Q.** What about the kon (Human 4-1BB His [6]) of the same binder?
**A.** 391000 M⁻¹ s⁻¹

**Q.** What about the “EC50 (read off the curve)” value (Human 4-1BB His [7]) of the same binder?
**A.** ~50 pM

**Q.** And the “EC50 (read off the curve)” value (Human 4-1BB His [8])?
**A.** ~50 pM

**Q.** And the “EC50 (read off the curve)” value (Human 4-1BB His [9])?
**A.** ~50 pM

**Q.** And the “EC50 (read off the curve)” value (Human 4-1BB His [10])?
**A.** ~70 pM

**Q.** And the “EC50 (read off the curve)” value (Human 4-1BB His [11])?
**A.** ~50 pM

**Q.** And the “EC50 (read off the curve)” value (Human 4-1BB His [12])?
**A.** ~100 pM

From US20260049151A1 (SHENGHE CHINA BIOPHARMACEUTICAL, published 2026)
